Assay results from patent US20220306759A1 (CYTOMX THERAPEUTICS, published 2022).

Legend:
[1] = target: T1, human CD71 (transferrin receptor protein 1, TfR1) on human cell lines (human, UniProt P02786 1-760); assay: FACS on H292 cells
T1 construct: whole, on cells; also called huCD71
Procedure: In this study, the binding of the antibodies of the present disclosure to the indicated cell lines were performed using a standard FACS labelling method. […] These activatable antibodies include the light chain of the correspondingly named sequence listed above in Table C. The cells were labeled with the indicated test article at the indicated concentrations and subsequently detected with an Alexa Fluor 647 labeled goat anti-human IgG secondary antibody.

[2] = target: T1, human CD71 (transferrin receptor …); assay: FACS on H292 cells; remark: listed apart in the source
Procedure: (§1) In this study, the binding of the antibodies of the present disclosure to the indicated cell lines were performed using a standard FACS labelling method.

[3] = target: T1, human CD71 (transferrin receptor …); assay: FACS on DMS 79 cells
Procedure: (§2) In this study, the binding of the antibodies and ADCs of the present disclosure to the indicated cell lines were performed using a standard FACS labelling method.

[4] = target: T1, human CD71 (transferrin receptor …); assay: FACS on BxPC3 cells
Procedure: as §1

[5] = target: T2, recombinant human CD71 protein (human, UniProt P02786 89-760); assay: ELISA, 1 µg/mL CD71 on copper or nickel plates
T2 construct: also called recombinant CD71
Procedure: (§3) The amount of bound antibody was detected by incubation and detection by goat anti-human antibody conjugated to horseradish peroxidase and Ultra TMB (Thermo Fisher Scientific) detection.

[6] = target: T2, recombinant human CD71 protein; assay: ELISA, 1 µg/mL recombinant human CD71
Procedure: as §3

[7] = target: T1, human CD71 (transferrin receptor …); assay: FACS on HCC1806 cells
Procedure: as §1

[8] = target: T1, human CD71 (transferrin receptor …); assay: FACS on HT29 cells
Procedure: as §1

[9] = target: T2, recombinant human CD71 protein; assay: ELISA, 1 µg/mL CD71 on nickel plates
[10] = target: T1, human CD71 (transferrin receptor …); assay: FACS on BxPC3 cells; remark: listed apart in the source
[11] = target: T1, human CD71 (transferrin receptor …); assay: FACS on FaDu cells
Procedure: as §1

[12] = target: T3, cynomolgus monkey CD71 on primary kidney epithelial cells (cynomolgus monkey, UniProt H9EXL1 1-760 (rhesus entry)); assay: FACS on cynomolgus monkey primary kidney epithelial cells
T3 construct: whole, on cells; also called cyno CD71
Procedure: In this study, the binding of the antibody of the present disclosure to the cells were performed using a standard FACS labelling method.

recombinant mouse CD71 = recombinant mouse CD71 (mouse, UniProt Q62351 89-763, limits assumed); assay: ELISA, recombinant CD71 (1 µg/mL) on plates, anti-human IgG-HRP
[13] = target: T1, human CD71 (transferrin receptor …); assay: FACS on MDA MB 231 cells
Procedure: as §1

[14] = target: T1, human CD71 (transferrin receptor …); assay: FACS on DMS 153 cells
Procedure: as §2

[15] = target: T2, recombinant human CD71 protein; assay: ELISA, 1 µg/mL recombinant human CD71 (second value)
Procedure: as §3

[16] = target: T1, human CD71 (transferrin receptor …); assay: FACS on MDA MB 231 cells; remark: listed apart in the source
Procedure: as §1

T1 sequence (P02786 whole entry): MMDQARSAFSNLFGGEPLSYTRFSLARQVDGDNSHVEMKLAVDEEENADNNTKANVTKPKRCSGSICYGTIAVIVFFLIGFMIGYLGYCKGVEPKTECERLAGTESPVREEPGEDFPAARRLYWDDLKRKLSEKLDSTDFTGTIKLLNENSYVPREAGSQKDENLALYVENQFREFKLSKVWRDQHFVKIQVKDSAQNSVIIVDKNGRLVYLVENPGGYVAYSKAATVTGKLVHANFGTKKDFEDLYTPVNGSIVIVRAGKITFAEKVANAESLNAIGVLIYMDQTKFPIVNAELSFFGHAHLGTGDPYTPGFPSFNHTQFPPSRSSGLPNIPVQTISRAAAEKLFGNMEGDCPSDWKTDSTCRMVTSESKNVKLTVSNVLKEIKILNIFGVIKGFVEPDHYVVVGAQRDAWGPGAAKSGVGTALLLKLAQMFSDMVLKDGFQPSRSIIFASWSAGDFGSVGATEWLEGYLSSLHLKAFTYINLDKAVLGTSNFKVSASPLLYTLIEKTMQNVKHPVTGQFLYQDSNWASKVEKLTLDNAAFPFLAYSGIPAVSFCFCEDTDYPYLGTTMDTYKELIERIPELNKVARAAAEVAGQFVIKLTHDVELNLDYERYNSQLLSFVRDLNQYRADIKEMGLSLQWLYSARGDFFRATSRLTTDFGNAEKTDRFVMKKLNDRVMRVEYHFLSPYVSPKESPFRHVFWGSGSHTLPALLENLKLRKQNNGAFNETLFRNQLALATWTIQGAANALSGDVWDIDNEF
T2 sequence (P02786 89-760 limits assumed): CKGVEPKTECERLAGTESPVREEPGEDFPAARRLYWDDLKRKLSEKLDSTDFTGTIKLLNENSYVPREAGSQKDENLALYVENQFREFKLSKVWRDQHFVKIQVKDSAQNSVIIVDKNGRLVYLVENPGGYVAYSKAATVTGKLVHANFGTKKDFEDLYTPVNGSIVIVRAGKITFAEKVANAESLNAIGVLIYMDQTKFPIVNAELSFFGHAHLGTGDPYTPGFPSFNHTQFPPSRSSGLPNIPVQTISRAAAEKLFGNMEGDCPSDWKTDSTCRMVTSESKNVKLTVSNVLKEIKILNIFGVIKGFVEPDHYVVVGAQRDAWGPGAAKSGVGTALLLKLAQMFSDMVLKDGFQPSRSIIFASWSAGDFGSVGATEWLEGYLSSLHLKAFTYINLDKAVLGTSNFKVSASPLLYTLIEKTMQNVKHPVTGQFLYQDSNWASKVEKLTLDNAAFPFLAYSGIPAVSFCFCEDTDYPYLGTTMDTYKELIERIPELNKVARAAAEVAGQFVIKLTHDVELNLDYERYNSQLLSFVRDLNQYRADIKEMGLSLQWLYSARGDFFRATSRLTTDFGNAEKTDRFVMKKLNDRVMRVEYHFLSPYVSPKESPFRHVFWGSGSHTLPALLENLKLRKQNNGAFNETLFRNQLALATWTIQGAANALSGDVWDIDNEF
T3 sequence (chain, as listed by the source): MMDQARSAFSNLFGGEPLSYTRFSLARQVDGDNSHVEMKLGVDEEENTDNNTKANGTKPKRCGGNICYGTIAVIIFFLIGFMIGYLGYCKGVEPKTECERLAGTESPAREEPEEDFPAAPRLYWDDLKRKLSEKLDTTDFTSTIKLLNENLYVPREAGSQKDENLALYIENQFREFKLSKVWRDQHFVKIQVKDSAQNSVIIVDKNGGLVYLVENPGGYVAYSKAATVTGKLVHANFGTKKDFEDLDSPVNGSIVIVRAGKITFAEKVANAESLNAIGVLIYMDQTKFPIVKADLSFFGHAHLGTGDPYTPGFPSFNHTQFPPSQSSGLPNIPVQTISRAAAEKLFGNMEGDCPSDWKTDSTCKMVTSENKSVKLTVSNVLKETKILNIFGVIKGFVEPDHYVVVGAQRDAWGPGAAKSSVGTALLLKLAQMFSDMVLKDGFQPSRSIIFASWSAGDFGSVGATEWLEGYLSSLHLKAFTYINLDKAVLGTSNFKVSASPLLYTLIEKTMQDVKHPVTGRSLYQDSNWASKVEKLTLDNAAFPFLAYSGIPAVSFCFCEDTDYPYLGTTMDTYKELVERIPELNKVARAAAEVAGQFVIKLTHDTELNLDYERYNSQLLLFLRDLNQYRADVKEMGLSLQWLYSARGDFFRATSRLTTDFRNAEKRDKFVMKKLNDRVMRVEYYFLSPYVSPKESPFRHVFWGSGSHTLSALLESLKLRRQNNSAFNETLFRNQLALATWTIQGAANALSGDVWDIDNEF
Chain of recombinant mouse CD71 (Q62351 89-763 limits assumed): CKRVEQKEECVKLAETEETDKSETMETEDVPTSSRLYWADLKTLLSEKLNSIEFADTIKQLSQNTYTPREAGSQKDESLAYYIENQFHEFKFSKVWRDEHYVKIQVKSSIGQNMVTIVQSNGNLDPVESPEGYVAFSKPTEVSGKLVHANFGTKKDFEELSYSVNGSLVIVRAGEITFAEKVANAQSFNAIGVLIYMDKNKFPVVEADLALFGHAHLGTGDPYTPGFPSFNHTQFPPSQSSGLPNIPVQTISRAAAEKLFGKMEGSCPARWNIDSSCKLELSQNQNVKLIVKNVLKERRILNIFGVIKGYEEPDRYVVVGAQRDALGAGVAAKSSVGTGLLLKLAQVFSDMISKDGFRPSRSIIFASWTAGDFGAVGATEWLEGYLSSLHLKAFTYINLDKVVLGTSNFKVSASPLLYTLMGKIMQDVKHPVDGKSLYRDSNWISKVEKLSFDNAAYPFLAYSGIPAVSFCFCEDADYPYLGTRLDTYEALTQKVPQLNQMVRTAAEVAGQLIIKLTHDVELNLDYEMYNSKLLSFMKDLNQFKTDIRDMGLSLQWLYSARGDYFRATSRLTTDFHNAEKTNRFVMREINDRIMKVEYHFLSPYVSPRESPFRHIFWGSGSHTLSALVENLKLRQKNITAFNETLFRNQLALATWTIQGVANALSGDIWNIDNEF

B1: Ab21.12 LcB:HcC (antibody, human IgG1, kappa)
heavy: not shown
light: DIQMTQSPSSLSASVGDRVTITCSASSSVYYMYWFQQKPGKAPKLWIYSTSNLASGVPSRFSGSGSGTDYTLTISSMQPEDFATYYCQQRRNYPYTFGQGTKLEIKRTVAAPSVFIFPPSDEQLKSGTASVVCLLNNFYPREAKVQWKVDNALQSGNSQESVTEQDSKDSTYSLSSTLTLSKADYEKHKVYACEVTHQGLSSPVTKSFNRGEC
Q: Which results are given for B1?
A: Kd [1]: 0.441 nM; Bmax (MFI) [2]: 1820 MFI; Kd [2]: 1.53 nM; Kd [3]: 0.898 nM; Kd [4]: 0.81 nM; Kd [5]: 0.14 nM; Kd [6]: 0.255 nM; Kd [7]: 5 nM; Kd [8]: 0.51 nM; Kd [9]: 0.3 nM; Kd [10]: ~3 nM; Kd [11]: 0.39 nM; Kd [12]: ~3 nM; binding result (recombinant mouse CD71): no binding; Kd [13]: 1.03 nM; Kd [14]: 4.47 nM; Kd [15]: 0.162 nM; Kd [16]: 0.84 nM
